Data reported in publication PMC4383044, “Molecular insights into RNA and DNA helicase evolution from the determinants of specificity for a DEAD-box RNA helicase” (eLife, 2014).

What was measured:
[1] = target: T1, Mss116 helicase core (D1D2, residues 88–597) (Saccharomyces cerevisiae, UniProt P15424); assay: kinetic gel-based dsRNA unwinding; format: biochemical; settings: 5 mM ATP-Mg, 2 uM D1D2, 125 nM labelled 12-bp dsRNA, pH 7.5, 22 °C
T1 construct: helicase core D1D2 (residues 88-597; D1, D2 and CTE), lacking unstructured N- (37-87) and C-terminal (598-664) extensions; expressed as N-terminal MalE (MBP) fusion in E. coli Rosetta 2; D1D2 used for crystals and kinetic unwinding
T1 sequence (P15424 88-597): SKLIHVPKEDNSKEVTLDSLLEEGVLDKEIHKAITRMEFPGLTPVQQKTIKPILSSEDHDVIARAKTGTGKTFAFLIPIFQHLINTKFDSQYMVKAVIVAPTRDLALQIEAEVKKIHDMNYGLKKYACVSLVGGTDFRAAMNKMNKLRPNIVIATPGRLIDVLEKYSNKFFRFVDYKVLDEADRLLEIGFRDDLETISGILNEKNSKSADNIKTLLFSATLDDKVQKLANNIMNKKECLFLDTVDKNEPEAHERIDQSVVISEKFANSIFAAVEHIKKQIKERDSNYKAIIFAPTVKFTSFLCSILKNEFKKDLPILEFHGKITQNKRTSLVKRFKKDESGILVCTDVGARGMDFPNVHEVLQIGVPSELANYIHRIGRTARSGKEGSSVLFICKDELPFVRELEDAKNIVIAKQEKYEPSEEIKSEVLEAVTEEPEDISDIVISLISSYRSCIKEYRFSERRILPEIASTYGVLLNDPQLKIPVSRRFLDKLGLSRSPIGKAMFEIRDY

Mss116 D2, MBP-tagged [2] = target: T2, Mss116 D2, MBP-tagged (Saccharomyces cerevisiae? (paper: yeast), UniProt P15424 342-597); assay: EMSA; no nucleotide; Hill 1.5; 20 mM Tris-HCl pH 7.5, 100 mM KCl, 10% glycerol, 1 mM DTT, 5 mM MgCl2, 0.1 mg/ml BSA, 22 C, >=1 h; EMSA gels 6% at 4 C in 0.5x TBE; SEC with 200 mM KCl, no BSA; settings: protein: recombinant; tags: N-terminal MBP (MalE); label: 5' FAM; self-complementary, 2 strand copies, 12 bp
T2 sequence: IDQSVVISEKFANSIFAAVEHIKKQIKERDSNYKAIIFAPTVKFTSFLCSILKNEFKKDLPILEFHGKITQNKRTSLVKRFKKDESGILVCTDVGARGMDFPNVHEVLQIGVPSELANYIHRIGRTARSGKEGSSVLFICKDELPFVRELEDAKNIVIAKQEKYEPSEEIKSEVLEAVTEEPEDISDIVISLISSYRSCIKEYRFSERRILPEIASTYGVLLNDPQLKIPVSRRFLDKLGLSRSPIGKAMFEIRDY

[3] = target: T3, Mss116 helicase core D1D2 (Saccharomyces cerevisiae? (paper: yeast), UniProt P15424 88-597); assay: SEC; 5 mM ADP-BeFx; A260/A280 0.6, open; no complex maintained on column; 20 mM Tris-HCl pH 7.5, 100 mM KCl, 10% glycerol, 1 mM DTT, 5 mM MgCl2, 0.1 mg/ml BSA, 22 C, >=1 h; EMSA gels 6% at 4 C in 0.5x TBE; SEC with 200 mM KCl, no BSA; settings: protein: recombinant; tags: expressed as MalE fusion; self-complementary, 2 strand copies, 12 bp
T3 sequence: T1 sequence (P15424 88-597)

Mss116 D2, MBP-tagged [4] = target: T2, Mss116 D2, MBP-tagged; assay: competition; unlabeled B-DNA displacing 250 nM 5' FAM-dsRNA from 500 nM MBP-D2; 20 mM Tris-HCl pH 7.5, 100 mM KCl, 10% glycerol, 1 mM DTT, 5 mM MgCl2, 0.1 mg/ml BSA, 22 C, >=1 h; EMSA gels 6% at 4 C in 0.5x TBE; SEC with 200 mM KCl, no BSA; settings: protein: recombinant; tags: N-terminal MBP (MalE); self-complementary, 2 strand copies, 12 bp
Mss116 D2, MBP-tagged [5] = target: T2, Mss116 D2, MBP-tagged; assay: competition; unlabeled dsRNA displacing 250 nM 5' FAM-B-DNA from 500 nM MBP-D2; 20 mM Tris-HCl pH 7.5, 100 mM KCl, 10% glycerol, 1 mM DTT, 5 mM MgCl2, 0.1 mg/ml BSA, 22 C, >=1 h; EMSA gels 6% at 4 C in 0.5x TBE; SEC with 200 mM KCl, no BSA; settings: protein: recombinant; tags: N-terminal MBP (MalE); self-complementary, 2 strand copies, 12 bp
[6] = target: T4, Mss116 helicase core D1D2, MBP-tagged (Saccharomyces cerevisiae? (paper: yeast), UniProt P15424 88-597); assay: gel-based fluorescence closed-state/unwinding assay; ADP-BeFx titrated (value is nucleotide concentration), 2 uM protein; 20 mM Tris-HCl pH 7.5, 100 mM KCl, 10% glycerol, 1 mM DTT, 5 mM MgCl2, 0.1 mg/ml BSA, 22 C, >=1 h; EMSA gels 6% at 4 C in 0.5x TBE; SEC with 200 mM KCl, no BSA; settings: protein: recombinant; tags: N-terminal MBP (MalE); label: 5' FAM, 3' Iowa Black FQ; self-complementary, 2 strand copies, 12 bp
T4 sequence: T1 sequence (P15424 88-597)

Mss116 D2, MBP-tagged [7] = target: T2, Mss116 D2, MBP-tagged; assay: EMSA; no nucleotide; Hill 2.2; 20 mM Tris-HCl pH 7.5, 100 mM KCl, 10% glycerol, 1 mM DTT, 5 mM MgCl2, 0.1 mg/ml BSA, 22 C, >=1 h; EMSA gels 6% at 4 C in 0.5x TBE; SEC with 200 mM KCl, no BSA; settings: protein: recombinant; tags: N-terminal MBP (MalE); label: 5' FAM; self-complementary, 2 strand copies, 12 bp
Mss116 D2, MBP-tagged [8] = target: T2, Mss116 D2, MBP-tagged; assay: EMSA; no nucleotide; Hill 1.6; 20 mM Tris-HCl pH 7.5, 100 mM KCl, 10% glycerol, 1 mM DTT, 5 mM MgCl2, 0.1 mg/ml BSA, 22 C, >=1 h; EMSA gels 6% at 4 C in 0.5x TBE; SEC with 200 mM KCl, no BSA; settings: protein: recombinant; tags: N-terminal MBP (MalE); label: 5' FAM; self-complementary, 2 strand copies, 12 bp

Question: How did the “kinetic gel-based dsRNA unwinding” value [1] turn out when Nc1ncnc2c1ncn2[C@@H]1O[C@H](COP(=O)(O)OP(=O)(O)OP(=O)(O)O)[C@@H](O)[C@H]1O [ATP] was run?
Answer: Its value is “only ATP, and not other NTPs, catalyzes the unwinding of the dsRNA”.

B1: 12-bp A-DNA duplex, 5' FAM (dsDNA)
DNA 1: CCCCCGCGGGGG
DNA 2: CCCCCGCGGGGG
Question: B1 was tested. Which “apparent K (half saturation)” value (Mss116 D2, MBP-tagged [2]) did it give?
Answer: Its value is 410 nM.

B2: 12-bp B-DNA duplex, unlabeled (dsDNA)
DNA 1: GCGCGCGCGCGC
DNA 2: GCGCGCGCGCGC
Question: Does B2 bind [3]?
Answer: Result: no binding

Question: And the Ki (Mss116 D2, MBP-tagged [4])?
Answer: Its Ki is 1.7 ± 0.2 µM.

B3: 12-bp dsRNA, unlabeled (dsRNA)
RNA 1: CCCCCGCGGGGG
RNA 2: CCCCCGCGGGGG
Question: How did the Ki (Mss116 D2, MBP-tagged [5]) turn out when B3 was run?
Answer: The Ki was 0.86 ± 0.04 µM.

B4: 12-bp dsRNA, FAM/IBFQ (dsRNA)
RNA 1: CCCCCGCGGGGG
RNA 2: CCCCCGCGGGGG
Question: With B4 as the molecule, how does the “apparent K (half saturation)” value [6] read?
Answer: The value was 140 µM.

B5: 12-bp dsRNA, 5' FAM (dsRNA)
RNA 1: CCCCCGCGGGGG
RNA 2: CCCCCGCGGGGG
Question: Which “apparent K (half saturation)” value (Mss116 D2, MBP-tagged [7]) does the source give for B5 here?
Answer: Its value is 400 nM.

B6: 12-bp B-DNA duplex, 5' FAM (dsDNA)
DNA 1: GCGCGCGCGCGC
DNA 2: GCGCGCGCGCGC
Question: For B6, which “apparent K (half saturation)” value (Mss116 D2, MBP-tagged [8]) is on record?
Answer: The value was 510 nM.
